Our source for the percent of the subunits' signal in I+III2+IVn supercomplexes and percent of the subunits' signal in supercomplex III2+IV values is paper PMC3318979.

Experiment [1] concerns the target mitochondrial respiratory chain complex I (human) (UniProt Q16795). The experiment can be described thus: native gel or EMSA.
The target of experiment [2] is mitochondrial respiratory chain complex III dimer (human) (UniProt P22695). The experiment can be described thus: native gel or EMSA.
Chain of UniProt P22695 (P22695 whole entry, looked up, one chain of several): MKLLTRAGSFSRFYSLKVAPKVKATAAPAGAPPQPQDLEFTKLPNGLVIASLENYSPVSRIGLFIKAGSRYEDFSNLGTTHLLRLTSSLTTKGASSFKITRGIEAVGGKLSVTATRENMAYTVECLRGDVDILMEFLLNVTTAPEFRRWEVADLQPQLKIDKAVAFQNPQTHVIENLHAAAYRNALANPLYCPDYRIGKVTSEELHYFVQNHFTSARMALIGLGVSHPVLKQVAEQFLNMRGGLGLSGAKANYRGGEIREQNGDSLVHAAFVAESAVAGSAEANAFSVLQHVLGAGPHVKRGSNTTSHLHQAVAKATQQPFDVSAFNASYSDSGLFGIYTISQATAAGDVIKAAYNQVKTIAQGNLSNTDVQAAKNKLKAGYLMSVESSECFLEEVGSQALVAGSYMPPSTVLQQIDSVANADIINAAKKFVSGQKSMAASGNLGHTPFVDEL

Chain of UniProt Q16795 (Q16795 whole entry, looked up, one chain of several): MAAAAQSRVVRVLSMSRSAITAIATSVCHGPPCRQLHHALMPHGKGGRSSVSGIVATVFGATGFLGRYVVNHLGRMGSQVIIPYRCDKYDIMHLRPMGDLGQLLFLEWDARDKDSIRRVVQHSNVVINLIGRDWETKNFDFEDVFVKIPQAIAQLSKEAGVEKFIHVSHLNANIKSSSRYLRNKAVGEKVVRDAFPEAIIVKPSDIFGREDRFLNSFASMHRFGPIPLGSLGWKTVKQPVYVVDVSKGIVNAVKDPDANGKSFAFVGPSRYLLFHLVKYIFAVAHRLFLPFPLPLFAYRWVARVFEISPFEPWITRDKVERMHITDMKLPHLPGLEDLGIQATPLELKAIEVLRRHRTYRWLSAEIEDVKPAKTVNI

As to “mitochondrial respiratory chain complex III dimer (from UniProt P22695 15-453; P47985 79-274)”, the percent of the subunits' signal in I+III2+IVn supercomplexes in experiment [1] came to 50%.

“mitochondrial respiratory chain complex IV (from UniProt P00395 1-513; P00403 1-227; P13073 23-169; P20674 42-150; P09669 1-75)”: the percent of the subunits' signal in supercomplex III2+IV in experiment [2] fell in the range of 1 to 3%.
